Series [1] addresses T1, cofactor factor Va of the prothrombinase complex (endogenous, in human plasma), P12259.
T1 chain 1: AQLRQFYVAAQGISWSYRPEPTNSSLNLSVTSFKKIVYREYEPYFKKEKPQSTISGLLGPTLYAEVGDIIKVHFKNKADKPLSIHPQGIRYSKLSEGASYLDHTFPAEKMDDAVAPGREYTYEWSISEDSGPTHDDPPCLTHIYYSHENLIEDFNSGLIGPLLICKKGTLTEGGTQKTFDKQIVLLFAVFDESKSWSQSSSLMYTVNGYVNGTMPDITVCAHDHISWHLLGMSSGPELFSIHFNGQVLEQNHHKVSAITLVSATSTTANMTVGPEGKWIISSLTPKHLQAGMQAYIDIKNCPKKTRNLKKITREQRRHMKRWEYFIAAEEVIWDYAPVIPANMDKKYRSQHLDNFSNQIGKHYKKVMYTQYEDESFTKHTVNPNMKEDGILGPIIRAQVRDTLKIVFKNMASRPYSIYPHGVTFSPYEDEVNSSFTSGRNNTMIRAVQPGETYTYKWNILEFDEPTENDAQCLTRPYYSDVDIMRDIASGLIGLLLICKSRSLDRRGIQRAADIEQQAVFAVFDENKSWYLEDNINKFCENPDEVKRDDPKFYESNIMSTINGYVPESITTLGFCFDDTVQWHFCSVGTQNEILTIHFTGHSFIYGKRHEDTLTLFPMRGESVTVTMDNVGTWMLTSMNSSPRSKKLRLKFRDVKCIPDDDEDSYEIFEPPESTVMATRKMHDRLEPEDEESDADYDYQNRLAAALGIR
T1 chain 2: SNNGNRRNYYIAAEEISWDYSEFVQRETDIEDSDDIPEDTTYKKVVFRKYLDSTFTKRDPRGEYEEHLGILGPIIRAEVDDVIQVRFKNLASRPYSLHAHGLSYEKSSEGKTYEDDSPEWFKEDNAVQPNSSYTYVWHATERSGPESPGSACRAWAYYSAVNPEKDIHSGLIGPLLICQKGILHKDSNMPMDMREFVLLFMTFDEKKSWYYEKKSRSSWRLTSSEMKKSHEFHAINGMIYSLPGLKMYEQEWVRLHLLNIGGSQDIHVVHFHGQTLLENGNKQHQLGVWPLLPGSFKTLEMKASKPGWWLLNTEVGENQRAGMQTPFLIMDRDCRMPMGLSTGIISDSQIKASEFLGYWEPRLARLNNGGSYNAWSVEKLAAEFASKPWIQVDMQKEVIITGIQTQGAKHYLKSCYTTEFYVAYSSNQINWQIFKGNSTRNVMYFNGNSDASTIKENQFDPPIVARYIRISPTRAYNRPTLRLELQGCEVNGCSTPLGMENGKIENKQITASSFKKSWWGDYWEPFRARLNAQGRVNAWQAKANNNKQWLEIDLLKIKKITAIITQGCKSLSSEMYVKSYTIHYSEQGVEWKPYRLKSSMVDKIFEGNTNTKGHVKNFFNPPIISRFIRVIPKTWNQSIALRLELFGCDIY

Series [2] addresses ATIII-fondaparinux complex (human antithrombin III with fondaparinux bound) (human, UniProt P01008 33-464, non-covalently bound fondaparinux (synthetic pentasaccharide)). As to the kind of experiment: cell-based or functional assay.

Residue numbers refer to the chain shown, from its start.

ATIII-fondaparinux complex (human antithrombin III with fondaparinux bound), sequence (P01008 33-464 limits assumed, one chain of several): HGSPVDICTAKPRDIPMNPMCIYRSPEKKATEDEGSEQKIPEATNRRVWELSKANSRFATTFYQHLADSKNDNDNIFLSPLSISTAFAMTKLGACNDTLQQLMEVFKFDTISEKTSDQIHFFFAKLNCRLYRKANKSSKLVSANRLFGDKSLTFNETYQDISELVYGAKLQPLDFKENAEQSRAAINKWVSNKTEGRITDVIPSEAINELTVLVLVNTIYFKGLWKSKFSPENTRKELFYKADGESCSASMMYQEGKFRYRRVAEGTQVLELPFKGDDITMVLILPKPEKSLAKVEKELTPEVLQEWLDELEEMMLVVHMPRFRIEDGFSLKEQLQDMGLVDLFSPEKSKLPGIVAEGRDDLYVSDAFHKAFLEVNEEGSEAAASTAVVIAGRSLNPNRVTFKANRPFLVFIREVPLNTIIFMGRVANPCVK

B1: EGR-Xa, active site inhibited full length human fXa (human plasma derived) (protein)
chain 1: ANSFLEEMKKGHLERECMEETCSYEEAREVFEDSDKTNEFWNKYKDGDQCETSPCQNQGKCKDGLGEYTCTCLEGFEGKNCELFTRKLCSLDNGDCDQFCHEEQNSVVCSCARGYTLADNGKACIPTGPYPCGKQTLER
chain 2: IVGGQECKDGECPWQALLINEENEGFCGGTILSEFYILTAAHCLYQAKRFKVRVGDRNTEQEEGGEAVHEVEVVIKHNRFTKETYDFDIAVLRLKTPITFRMNVAPACLPERDWAESTLMTQKTGIVSGFGRTHEKGRQSTRLKMLEVPYVDRNSCKLSSSFIITQNMFCAGYDTKQEDACQGDSGGPHVTRFKDTYFVTGIVSWGEGCARKGKYGIYTKVTAFLKWIDRSMKTRGLPKAKSHAPEVITSSPLK
B1: the “IIa formation (RFU) in tissue factor-initiated thrombin generation in human plasma against EGR-Xa concentration” value in series [1] was “circles: falls steeply from about 380,000 RFU at 0 nM to about 180,000 and about 85,000 RFU at the next points, below 50,000 RFU by about 100 nM and about 10,000 RFU at about 500 nM”.

B2: r-Antidote (processed two-chain polypeptide, human factor Xa triple mutant after removal of the -RKRRKR- linker) (other)
chain 1: ANSFLFWNKYKDGDQCETSPCQNQGKCKDGLGEYTCTCLEGFEGKNCELFTRKLCSLDNGDCDQFCHEEQNSVVCSCARGYTLADNGKACIPTGPYPCGKQTLER
chain 2: B1 chain 2 with S185A
Regarding B2, the “IC50 (read off the curve): r-Antidote concentration that halves kiapp of fXa inhibition by the ATIII-fondaparinux complex” value in series [2] was approximately 100 nM.

Source of the values: US20180185459A1 (PORTOLA PHARMACEUTICALS, published 2018).
